From the DeepSol protein solubility set

Test: soluble on expression in E. coli; label from the status in PepcDB or PDB records

Q: With “MGSDKIHHHHHHMSLEATDSKAMVLLMGVRRCGKSSICKVVFHNMQPLDTLYLESTSNPSLEHFSTLIDLAVMELPGQLNYFEPSYDSERLFKSVGALVYVIDSQDEYINAITNLAMIIEYAYKVNPSINIEVLIHKVDGLSEDFKVDAQRDIMQRTGEELLELGLDGVQVSFYLTSIFDHSIYEAFSRIVQKLIPELSFLENMLDNLIQHSKIEKAFLFDVNSKIYVSTDSNPVDIQMYEVCSEFIDVTIDLFDLYKAPVLRNSQKSSDKDNVINPRNELQNVSQLANGVIIYLRQMIRGLALVAIIRPNGTDMESCLTVADYNIDIFKKGLEDIWANARASQAKNSIEDDV” as the sequence, how does the “soluble on expression in E. coli” value read?
A: not soluble

Q: For “MGSDKIHHHHHHMSLHAPTFSKLFSGVIWKIIADSDTGTVYVETRDGDKRKALFHAFDLQAKKMLWADVSILDAWWSSLKIANKGNLLVVKFNDPDMPEQRGFAVIDGKTSKLLWGKDDAQVMQAEPDGIIVAEGKEEDSSYLKLDWAAGKTLGAVSVKEMFSGFNKKAQTRSFVLYPFHFEEENSFFSKIKEYIEIITGHKAVRMIEYLEKGDKVLISYYIYEEEKLTNFILVADEKGALLVHEKLNAGLKGIGMDTFFVLKDQLIVVKNNNELQSYVIK”, which “soluble on expression in E. coli” value is on record?
A: not soluble

Q: For “MGSDKIHHHHHHMSLKELLKDRLSEEELKLVRRSFEIIGDVVIIEIPDEIMHHSRDIVEAILKRHKHVKTVLRKVGEVDGVYRVARYEPIYGEKTETVVREHGCRFLVDPTKAYYSVKLSGERERIARLVGEGERVLVMFAGVGPYPIVIAKLARPREVVGVELNPHAVEYFRQNVRLNKVEGVVKVIEGDVEEVVPQLSGQFDRVVMPAPYSAENFIHLLRGKVRRGGFVHYYTFDSQNEEKILPEKVRRKFEDEGLEVEVVKMRRCGNFAPYVNRYVLDLRVL”, which “soluble on expression in E. coli” value is on record?
A: not soluble

Q: With “MGSDKIHHHHHHMSMEAASLDAVSEEQAQSVSILEQAIFATKQTDSSRAEELIRSLTEEALKGTVQWDKNLTVTFNKAITRLDDIISKQLAAIMHNEELQKLEGSWRGLHHTVKNSETNETLKIRVMSLSKKELHKDLSKAVEFDQSQMFKKIYEAEFGTPGGEPYGCLVGDYEFSNHPEDVETLSLISNVAAAGFCPFVSAAGSSLFGFDEWTELSKPRDLEKVFESLEYTQWRSFRDSDDSRFVTLTMPRVLARLPYGEATKPVEEFCYEEFELDLESGRAKVADHDDYCWMNAAYVMATNMGQAFSKYGFCTAIRGAEGGGKVEGLPAHVFTSDDGDPDLKCPTEIGITDRREAELSKLGFLPLCHYKHTDYAVFFGSQSCQKPKIMSNHDATANAAISARLPYLMATSRFAHYLKVMARDKIGSFMEAEDVESWLNRWILSFVNASEGGGQEIRAKYPLADAKVEVKEIPGQPGSYNAVAWLRPWLQMEELTASLRLVAKIPKVG” as the sequence, how does the “soluble on expression in E. coli” value read?
A: not soluble

Q: Which “soluble on expression in E. coli” value does the source give for “MGSDKIHHHHHHMSMILTSKFVDRERELNFLREHYHSGKAELIVIYGRRRIGKTYLLRKFLEETNGIYLLAEENETNLEDFSLRLADYFKDPFLKENPIRTWGAFFTYLAGKSTKRLVVVIDGVQYLVRAEKGFLSTLQKYWDLYLSSTKIMLILCGSLVSFMEGILSGKSPIYGRRTGTWKVEEMSFFDVLKFHPIDIETAIKIYGVFGGVPQYWVDYDPGKDFWENIKDLVLSKGAKYYDEPKYLLKEELRDVSRYFSILRAISLGYSRFGQIADAARIETKSLGKYLNVLEEMGYIREEKPIVGRGKTVYKINEHFFNFWFRFVFPRRSEIEMGFDVVEEIKKEFNNYLGPVFEEISRQFLIEMNKRKKLPFRFTKIGRWWYKGEEIDLVALNEDEKKALFIEVKWKNLERKEAYKILKDLKRKAELTGLHDWNKAYGIIAKSIMEKEELREEGFLAWDLRDFELIN” here?
A: not soluble

Q: With “MGSDKIHHHHHHMSMVEEKFKKLGVENAPGQELLQKGVKLDLKGEKILGEKIDFSHGDVDAHKPLPNSLELFIEGFNKGGIQAYTEYKGNKEIREYIAGKLSEYIKMNIPADNLIITPGTQGALFLATGSLITRGTKVSIVEPDYFANRKLVEFFEGEIVPIELDYFNVNEKKAGLNLKQLEEAFKSGVELFLFSNPNNPTGVIYSDEEITEIARLVNKYNVTVIADELYSRQIFDNREFYHLITKNINQDKLITIIGPSKTESLSGFRLGIAYGSPTIIKRMEKLQAITTLRTAGYNQAVLKSWFSEPDGFMKDRIEKHQAIRDNLIEKFKTIDGIKIRKTEAGSYIFPTLPELEVNLGDFVKILRIYANVIVTPGTEFGKSFINSIRLNFSQDEKKAAEGVDRILEMIRRYKK” as the sequence, how does the “soluble on expression in E. coli” value read?
A: not soluble

Q: With “MGSDKIHHHHHHMSNFNFDFAENDFGPLAAKMRPTSLEQYFGQSHLIGEGKPLRKAIQAGHIYSMIFWGPPGTGKTTLAEIIAQRINAEVERISAVTSGIKEIREAIDRAKQNRLADRKTILFVDEVHRFNKSQQDAFLPHIEDGTVIFIGATTENPSFELNNALLSRARVYVLKSLTTAEIEQVLQQAVEDPKRGLGKERLILEENLLQVLAEYVNGDARLALNCLELMVDMADETENGKKIDRTLLKEVLGERQARFDKQGDRFYDLISALHKSVRGSAPDAALYWYARILTAGGDPLYVARRLLAIASEDVGNADPRAMQVALAAWDCFSRVGAYEGERAIAQAIIYLSVAPKSNAVYTAFNTAKQQAKDLPDYDVPPHLRNAPTNLMKELGYGTEYRYAHDEPNAYAAGENYFPPELKDTQYYFPTNRGMEIQIKEKLERLREQDKSAVKKRYK” as the sequence, how does the “soluble on expression in E. coli” value read?
A: not soluble

Q: For “MGSDKIHHHHHHMSNLQKVIVFGASGFLGEHIIKSLISENWDVYAAVRTKPESSTDGFNQTQVTYYEGDLEDQKYIQDAIAGMDAIIFSAGCTWKSDLEISEYYRRNVQITKNFFTALGDRPNVRIVYTSSMSVIAGSKSDYIFFEDSDRSQVSQNQLSPYDLAKIECEQIALDYAQRGNNLVILNPGNMLGPGVFNHSKITTSILVLWFCQKQFPFYINGGHSYCDVRDVAKAHVAALTRGRSGERYIVAGDNLDMASISSLLVKMTGFKMPQQLPASGVYLLSLLLESLSLLSFRLFKNPYHPDFVKSFALHYYANSQKAIKELAYNITPIETTLIDTIKYFGKRELLSEDLNFFALMTHSNIQSLIYLRQLASQHTFSQFLLSKISQIYGICQSNLSLNNVLDNLVNHSKFNIKTGKFQPDKTKCQEDLKSINQLFEYLYFASNDFLSEVI”, which “soluble on expression in E. coli” value is on record?
A: not soluble

Q: For “MGSDKIHHHHHHMSNLSLDFSHNEFQPLAARMRPATLAQYIGQQHLLGAGKPLPRAIEAGQLHSMILWGPPGTGKTTLAELIGHYGQADVERISAVTSGIKEIREAIERARQNRNAGRRTILFVDEVHRFNKSQQDAFLPHIEDGTITFIGATTENPSFELNSALLSRARVYLLKALMAEDIEQVLLQAMSDSERGYGGLNIVLPAETGRMLAELVNGDARRALNSLEMMADMAEIDAQGMRILTPALLNEIAGERSARFDNKGDRYYDLISALHKSVRGSAPDAALYWYARIITAGGDPLYVARRLLAIASEDVGNADPRAMQVAISAWDCFTRVGPAEGERAIAQAIVYLACAPKSNAVYSAFKAAMQDAREKPDYDVPEHLCNAPTRLMKEMGLGAEYRYAHNEPNAYAAGESYFPPEMADTHYYAPTSRGLEGKIGEKLAWLATQDQNSPTKRYR”, which “soluble on expression in E. coli” value is on record?
A: not soluble

Q: With “MGSDKIHHHHHHMSNQFMFADETSQQTTKLPTEYWKILIVDDEPEVHAVTKLALNDFNFLGRGLKFYSAFSGEEAKRLIDEHPDAAILLLDVVMETDDAGLQVARYIREEADNHFTRIILRTGQPGQAPERTVIVNYDINDYKSKTELTAQKLFTAVMSSLRSYRDIMSIDQSRHGLEKIIAASANLYALQPMNSFVDGLVQQLSWVIGGAKQTLYATSNEDGSSYKVLAAHGEDSGVCVGQTLRSVIPSKALAELEHVIANHGSYYGDDFVLLYCRSHCRSHGSVLFIGGLSRALTADDHHVLQLFSENVQLAQDNVVCLEDSDQFLARLADQLMLHHASHFNGILEQNSEVRLAYAVAQKVAAEDAETTALAWSLFAQARPLLNCASDAAAAVETTCQQRVARSLRALGHGEHEATQNAHRALIERLERWDGLGLPEGKQGSDIAISTQVLLLTEQLLDWWESGISDSDIAVRLKDERGRYYSPKFLDVVIKSLPELRTI” as the sequence, how does the “soluble on expression in E. coli” value read?
A: not soluble

Q: With “MGSDKIHHHHHHMSNRLSVVMIAKNAADLLPDCLGSVSWADEIIVLDSGSTDNTVELARRLGAQVYTHTDWRGYGIQRQRAQDYATGDWVLMIDTDERVTPELRQAILKVLDAPQRGAIYSIARRNYFLGRFMRHSGWYPDRVLRLYERARYRYNDNLVHESLDSLGAEVIPLTGDLLHLTCRDFAGFQQKQLAYAAAWALERHQKGKKTSMAGIFSHTLGAFLKTLLLRGGVLDGKQGWLLAMVNAQYTFTKYTELWALSHGYSEKESS” as the sequence, how does the “soluble on expression in E. coli” value read?
A: not soluble

Q: Which “soluble on expression in E. coli” value does the source give for “MGSDKIHHHHHHMSQTMMLIEKSSHCVSWYDTETGALQGRLALPDFPHEFVVDQDNHYAYVGHYGVQNSGVEGTDGRSVIVIDIRKQEIVHRYDLGEHARPHGISLDAQGRLYVLSEWSGHLLVKENPRAFDQGWDHVTPVGGEKPHLFALTGDGRTAYSMNLNSGDVTVLDPYDPTRIPVSIKTGEKPEGRCLREEAGVLYTSQRISNTVAVVDTKTLQVQRIFPTPQDPCRVYYDAKRNRLVTMNHHGGSFSVFDEATGEMLHEQKTPANPLALCIDDEAAYAYIAIDCEQVQRFNLDTFEVVQTFDTGKEPDVMVILPEGYSKHWEVNA” here?
A: not soluble

Q: Which “soluble on expression in E. coli” value does the source give for “MGSDKIHHHHHHMSRILITCAITGSIHTPSMSPYLPVTADEITQQAVDAADAGAAILHLHARDPETGRPSAEIGHFMGFLPRIKQSCEAVLNLSTGGSAVMTLDQRLAAPKQAAPEMCSLNMGTMNFALYPAADRISDWKHDWEEPFLRGSDDLVFKNTPRDMALILGEMGTKRGARFEFEVYDVGHLYMLRHFVDRGLVQGPLFIQFVFGVLGGIGPDPENLMHMKTVADKLFGQDYLFSVLAAGRHQIPLVTMAAAMGGHVRVGLEDSLMISRGVLARSNAEQVRKIRRIVEDLGREVASPGEARAMLGLKGADRTAF” here?
A: not soluble

Q: With “MGSDKIHHHHHHMSRRQHFAKVTPLLHRHGDYFVFIGFDYGTANCSVAVMRDGKPHLLKMENDSTLLPSMLCAPTREAVSEWLYRHHDVPADDDETQALLRRAIRYNREEDIDVTAKSVQFGLSSLAQYIDDPEEVWFVKSPKSFLGASGLKPQQVALFEDLVCAMMLHIRQQAQAQLPEAITQAVIGRPINFQGLGGDEANTQAQGILERAAKRAGFRDVVFQYEPVAAGLDYEATLQEEKRVLVVDIGGGTTDCSLLLMGPQWRSRLDREASLLGHSGCRIGGNDLDIALAFKNLMPLLGMGGETEKGIALPILPWWNAVAINDVPAQSDFYSSANGRLLNDLVRDAREPEKVALLQKVWRQRLSYRLVRSAEECKIALSSVAETRASLPFISNELATLISQRGLESALSQPLTRILEQVQLALDNAQEKPDVIYLTGGSARSPLIKKALAEQLPGIPIAGGDDFGSVTAGLARWAEVVFR” as the sequence, how does the “soluble on expression in E. coli” value read?
A: not soluble

Q: With “MGSDKIHHHHHHMSRVGIPRSLFYYYYYPLWKSFFSDLGVEILTSAPSNRHTVERGIELAVDETCFPIKVYLGHVAELCREELDYLFIPRLVSVEARSYICPKFMGLPDIVRALIKETPPLIDITVDLSRDEKCFKKDIIRVGRLFTRQASRIQLAYQHGCEELRLCRSLASQGFTMEEAIKIWEGGAMEAEPETDLNIGVLGHGYSLYDERISMNLVKRLRAMNCKVLLPEHLGSEVVEAEAATVPKRVFWTLGRKMLGSALHLSQREDVDGIIYLACFGCGPDSLIGEIIERKVRDCKPFILLTVDEHSGEAGIITRLEAFCDMLRRRRNCGSESKLSPYGVSLHSFENTV” as the sequence, how does the “soluble on expression in E. coli” value read?
A: not soluble

Q: With “MGSDKIHHHHHHMSSDVQKGDNLETPGARDLLLQTASNIMREGDVVDISLSELSLRSGLNSALVKYYFGNKAGLLKALLDRDMENIVKSVDALLAKDDMSPEAKLRRHISKCIDTYYDYPYLNRLLMRLVRDSDEAEAKRIADQYLLPLHRAYNRFIGEGVKAGVFRPINPQLFYFTVTGAADRFFSARLVLKHCFDQDTLTEQLRDSYREHTVDFIMAGILAH” as the sequence, how does the “soluble on expression in E. coli” value read?
A: not soluble
